In the assay the target is T1, purified recombinant mouse PKCζ (mouse, UniProt Q02956 1-592).
T1 sequence (looked up): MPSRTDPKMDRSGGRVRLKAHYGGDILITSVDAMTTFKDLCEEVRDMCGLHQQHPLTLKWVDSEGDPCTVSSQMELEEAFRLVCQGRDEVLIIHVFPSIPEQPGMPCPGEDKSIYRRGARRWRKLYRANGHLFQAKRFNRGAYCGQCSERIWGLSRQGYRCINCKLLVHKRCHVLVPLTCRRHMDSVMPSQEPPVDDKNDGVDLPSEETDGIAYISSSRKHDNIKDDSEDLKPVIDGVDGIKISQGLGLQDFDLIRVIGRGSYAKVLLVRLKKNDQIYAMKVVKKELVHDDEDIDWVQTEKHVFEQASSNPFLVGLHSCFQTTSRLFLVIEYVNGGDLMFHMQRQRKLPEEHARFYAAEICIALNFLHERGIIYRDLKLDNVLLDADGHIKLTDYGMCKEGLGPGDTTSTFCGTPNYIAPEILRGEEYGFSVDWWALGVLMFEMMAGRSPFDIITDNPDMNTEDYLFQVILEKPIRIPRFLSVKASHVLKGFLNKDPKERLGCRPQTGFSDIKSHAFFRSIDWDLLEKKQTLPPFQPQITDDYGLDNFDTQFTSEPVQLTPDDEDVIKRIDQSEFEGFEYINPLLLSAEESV
As to the kind of experiment: far-Western, overlay or dot blot.

B1: GST-ASIP 712/936 (domain or fragment, rat, UniProt Q9Z340 712-936, looked up)
chain: RRISHSLYSGIEGLDESPTRNAALSRIMGESGKCQLSPTVNMPHDDTVMIEDDRLPVLPPHLSDQSSSSSHDDVGFIMTEAGTWAKATISDSADCSLSPDVDPVLAFQREGFGRQSMSEKRTKQFSNASQLDFVKTRKSKSMDLGIADETKLNTVDDQRAGSPNRDVGPSLGLKKSSSLESLQTAVAEVTLNGNIPFHRPRPRIIRGRGCNESFRAAIDKSYDKP
For B1, the binding result is on record as “binds”.

The values above are taken from paper PMC2132825 (The Journal of Cell Biology, 1998).
